US20030114404, “Vascular endothelial growth factor (VEGF) nucleic acid ligand complexes” (Gilead Sciences, Inc., published 2003)
Numbering of substitutions follows the chain as printed.

B1: VP30.63 (ssRNA)
RNA: GGGAGGACGAUGCGGAACCAAUAGAGAUCUUCGGCUGCCCCGCGUCAGACGACUCGCCCGA
modifications: 2'-F pyrimidines
B2: VP30.14 (ssRNA)
RNA: GGGAGGACGAUGCGGACUGGGAGAAUCCGAAAAACCUUCACGCGUCAGACGACUCGCCCGA
modifications: 2'-F pyrimidines
B3: VP30.6 (ssRNA)
RNA: GGGAGGACGAUGCGGAACGGAAUUCUUGGAUACACACCUCGUCCUCAGACGACUCGCCCGA
modifications: 2'-F pyrimidines
B4: VP30.23 (ssRNA)
RNA: GGGAGGACGAUGCGGGAGCUUGAAGUUUCAGUAUUGGCACAACCUCAGACGACUCGCCCGA
modifications: 2'-F pyrimidines
B5: VP30.48 (ssRNA)
RNA: B4 RNA with A30G
modifications: 2'-F pyrimidines
B6: VP30.61 (ssRNA)
RNA: B4 RNA with U34C
modifications: 2'-F pyrimidines
B7: VP40.11 (ssRNA)
RNA: GGGAGGACGAUGCGGAAGGAAGAUGUUGAUCGUUUGACGUGAUGUGGAUCCGCGUCAGACGACUCGCCCGA
modifications: 2'-F pyrimidines
B8: VP40.2 (ssRNA)
RNA: GGGAGGACGAUGCGGAUCUGUGAACUGGGUUUUUGCCGACGGUUACGCUUUUGCUCAGACGACUCGCCCGA
modifications: 2'-F pyrimidines
B9: VP40.5 (ssRNA)
RNA: GGGAGGACGAUGCGGUUGAUCGAGGUUCUAAAGCCUAUUUCCUGACUUUCUCCCCCAGACGACUCGCCCGA
modifications: 2'-F pyrimidines
B10: VP30.40 (ssRNA)
RNA: GGGAGGACGAUGCGGAAACGGAAGAAUUGGAUACGCAAGCACGUUCAGACGACUCGCCCGA
modifications: 2'-F pyrimidines
B11: VP30.20 (ssRNA)
RNA: GGGAGGACGAUGCGGUUGAUCGGACGUUAGUCAUUUCCCGAUCGUCAGACGACUCGCCCGA
modifications: 2'-F pyrimidines
B12: VP30.18 (ssRNA)
RNA: GGGAGGACGAUGCGGAUCCAUCAUUUAACCGUUUGCUCUCCCCCUCAGACGACUCGCCCGA
modifications: 2'-F pyrimidines
B13: VP40.26 (ssRNA)
RNA: GGGAGGACGAUGCGGACUCAACUGGACGCUAUGUUGACGGUUAUCGCUUUUGGGUCAGACGACUCGCCCGA
modifications: 2'-F pyrimidines
B14: VP30.67 (ssRNA)
RNA: GGGAGGACGAUGCGGUUAACGGAAUUCUUGGAUACAUAGCAUGGUCAGACGACUCGCCCGA
modifications: 2'-F pyrimidines
B15: VP40.24 (ssRNA)
RNA: GGGAGGACGAUGCGGGAUGCUGAGUGAGGAAGUCUGAUUGUUGCAGUAUUGGCGUCAGACGACUCGCCCGA
modifications: 2'-F pyrimidines
B16: VP40.36 (ssRNA)
RNA: GGGAGGACGAUGCGGCAGGUUCAGAAUUGGCAGUCGCAUUGAUCUUUUUCACCGCCAGACGACUCGCCCGA
modifications: 2'-F pyrimidines
B17: VP40.3 (ssRNA)
RNA: GGGAGGACGAUGCGGCAAAAGUUUGAGUUGAUCUGAUACGUUUCAGUAUUGGCGUCAGACGACUCGCCCGA
modifications: 2'-F pyrimidines
B18: VP40.18 (ssRNA)
RNA: GGGAGGACGAUGCGGUAGUAAGUUAUUGAAAGCGCAUCUCUAUCAACUCUCGGCCCAGACGACUCGCCCGA
modifications: 2'-F pyrimidines
B19: VP30.11 (ssRNA)
RNA: GGGAGGACGAUGCGGUCAGGAACGGAAUUUUUGGAGACACGCCCUCAGACGACUCGCCCGA
modifications: 2'-F pyrimidines
B20: VP40.25 (ssRNA)
RNA: GGGAGGACGAUGCGGAAUGGAAUUUGAGUCGAUCUAGAAUGCGUCGUAUGGGCUCAGACGACUCGCCCGA
modifications: 2'-F pyrimidines
B21: VP30.35 (ssRNA)
RNA: GGGAGGACGAUGCGGUGAAUGAGCUGACGACCCUGAAUUGCUCGUCAGACGACUCGCCCGA
modifications: 2'-F pyrimidines
B22: VP30.65 (ssRNA)
RNA: GGGAGGACGAUGCGGAAAACGCUUUUCUUGGCCCCCUCGUUGCGCCAGACGACUCGCCCGA
modifications: 2'-F pyrimidines
B23: VP30.27 (ssRNA)
RNA: GGGAGGACGAUGCGGAAGAAUUGGAUAUAUCGUUCACCCCCACCUCAGACGACUCGCCCGA
modifications: 2'-F pyrimidines
B24: VP30.58 (ssRNA)
RNA: GGGAGGACGAUGCGGCAACUAUUCGUUGAUGUUUCCGUGAGCCGUCAGACGACUCGCCCGA
modifications: 2'-F pyrimidines
B25: t44 (ssRNA)
RNA: GCGGAAUCAGUGAAUGCUUAUACAUCCGC
modifications: 2'-F pyrimidines, N30 = 3'-3' inverted dT [30 = 3'-3' inverted dT (N replaced by T); 2'-F pyrimidines at 2,7,8,11,15,17,18,19,21,23,25,26,27,29]
B26: t2a (ssRNA)
RNA: GCGAACCGAUGGAAUUUUUGGACGCUCGC
modifications: 2'-F pyrimidines except 2'-OH C29
B27: t22b (ssRNA)
RNA: ACGAUGCGGUAGGAAGAAUUGGAAGCGC
modifications: 2'-F pyrimidines except 2'-OH C28
B28: t2c (ssRNA)
RNA: GAACCGAUGGAAUUUUUGGACGCUC
modifications: 2'-F pyrimidines, N26 = 3'-3' inverted dT [26 = 3'-3' inverted dT (N replaced by T); 2'-F pyrimidines at 4,5,8,13,14,15,16,17,21,23,24,25]
B29: t44b (ssRNA)
RNA: GGAAUCAGUGAAUGCUUAUACAUCC
modifications: 2'-F pyrimidines except 2'-OH C25
B30: t44a (ssRNA)
RNA: CGGAAUCAGUGAAUGCUUAUACAUCCG
modifications: 2'-F pyrimidines
B31: t22a (ssRNA)
RNA: GACGAUGCGGUAGGAAGAAUUGGAAGCG
modifications: 2'-F pyrimidines
B32: t22c (ssRNA)
RNA: GCGGUAGGAAGAAUUGGAAGCGC
modifications: 2'-F pyrimidines except 2'-OH C23
B33: t2b (ssRNA)
RNA: CGAACCGAUGGAAUUUUUGGACGCUCG
modifications: 2'-F pyrimidines
B34: t2d (ssRNA)
RNA: AACCGAUGGAAUUUUUGGACGCU
modifications: 2'-F pyrimidines, N24 = 3'-3' inverted dT [24 = 3'-3' inverted dT (N replaced by T); 2'-F pyrimidines at 3,4,7,12,13,14,15,16,20,22,23]
B35: t22 (ssRNA)
RNA: GACGAUGCGGUAGGAAGAAUUGGAAGCGC
modifications: 2'-F pyrimidines, N30 = 3'-3' inverted dT [30 = 3'-3' inverted dT; all C/U at 1-29 = 2'-F]
B36: t22d (ssRNA)
RNA: CGGUAGGAAGAAUUGGAAGCGC
modifications: 2'-F pyrimidines except 2'-OH C22
B37: t22OMe (OH-10,22) (ssRNA)
RNA: GACGAUGCGGUAGGAAGAAUUGGAAGCGC
modifications: 2'-F pyrimidines, 2'-OMe purines except 2'-OH G10, G22
B38: t22OMe (OH-10,12) (ssRNA)
RNA: GACGAUGCGGUAGGAAGAAUUGGAAGCGC
modifications: 2'-F pyrimidines, 2'-OMe purines except 2'-OH G10, A12
B39: t2OMe (OH-6,21) (ssRNA)
RNA: GGCGAACCGAUGGAAUUUUUGGACGCUCGCC
modifications: 2'-F pyrimidines, 2'-OMe purines except 2'-OH A6, G21
B40: t2OMe (OH-21) (ssRNA)
RNA: B39 RNA
modifications: 2'-F pyrimidines, 2'-OMe purines except 2'-OH G21
B41: t2OMe (OH-6) (ssRNA)
RNA: B39 RNA
modifications: 2'-F pyrimidines, 2'-OMe purines except 2'-OH A6
B42: t22OMe (OH-10,12,22) (ssRNA)
RNA: GACGAUGCGGUAGGAAGAAUUGGAAGCGC
modifications: 2'-F pyrimidines, 2'-OMe purines except 2'-OH G10, A12, G22
B43: t44OMe (OH-5,6) (ssRNA)
RNA: GCGGAAUCAGUGAAUGCUUAUACAUCCGC
modifications: 2'-F pyrimidines, 2'-OMe purines except 2'-OH A5, A6
B44: t22OMe (OH-12,22) (ssRNA)
RNA: GACGAUGCGGUAGGAAGAAUUGGAAGCGC
modifications: 2'-F pyrimidines, 2'-OMe purines except 2'-OH A12, G22

target: T1, VEGF165 (Homo sapiens, UniProt P15692-4 P15692-4:27-191); experiment: filter; 37 C; conditions: tags: carrier-free, Sf 21 insect cell expressed, R & D Systems; chain copies: 2 (inferred)
T1 sequence (P15692 other isoform, or with tags, fused parts or gaps): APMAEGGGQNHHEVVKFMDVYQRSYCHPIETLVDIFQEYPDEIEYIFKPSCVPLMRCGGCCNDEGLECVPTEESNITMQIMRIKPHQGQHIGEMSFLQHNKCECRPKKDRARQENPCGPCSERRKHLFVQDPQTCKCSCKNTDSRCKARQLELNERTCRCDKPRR
Description: (§1) Nucleic Acid Ligands radiolabeled during transcription by incorporation of α-[³²P]-labeled NTPs, or after synthesis using γ-[³²P]-ATP and T4 polynucleotide kinase, were incubated in low concentration (between 20 and 70 pM) with varying concentrations of VEGF or other growth factors at 37° C. for 15 minutes. Incubations were in TBS, PBS, or HEPES-buffered saline (HBS), pH 7.4, with or without the addition of supplemental divalent cations. Samples were passed through prewashed 0.45 μ Type HA filters (Millipore) followed by a 5-10 ml wash with binding buffer. Filters were immersed in scintillant and counted to quantitate the amount of protein-bound RNA retained by each filter. The equilibrium dissociation constant (KD) of Nucleic Acid Ligand binding to a specific protein was calculated from the data points as described in Green et al. (1996) Biochem. 35: 14413-14424.

Binder | Kd
B1 | 16 pM
B2 | 25 pM
B3 | 20 pM
B4 | 63 pM
B5 | > 10000 pM
B6 | 43 pM
B7 | 980 pM
B8 | 35 pM
B9 | 19 pM
B10 | 6 pM
B11 | 57 pM
B12 | 27 pM
B13 | 13 pM
B14 | 24 pM
B15 | 5000 pM
B16 | 1300 pM
B17 | 2000 pM
B18 | 12 pM
B19 | 25 pM
B20 | 740 pM
B21 | 6 pM
B22 | 33 pM
B23 | 400 pM
B24 | 6 pM

target: T1, VEGF165; experiment: filter; 37 C; conditions: tags: carrier-free, Sf 21 insect cell expressed, R & D Systems; chain copies: 2 (inferred); remark: another data set of the same source
Description: as §1
The shared primary and secondary structural motifs that define each sequence family hint at the minimal sequence elements required for high affinity binding to VEGF. Nested truncations of a representative ligand from each family (indicated by gray boxes in Table 2) were produced by chemical synthesis and their relative affinities for VEGF were determined (Table 3). Truncated versions of ligands VP30.22, VP30.2 and VT30.44 were prepared by chemical synthesis and their affinities for VEGF were determined as described in Example 3. Initial truncations (t22, t2, t44) were further refined by synthesis of oligonucleotides with additional bases lacking from the 5′ and/or 3′ ends. In order to initiate the chemical synthesis, the 3′-most nucleotide of several of the ligands was modified either by substitution of 2′-OH-cytidine for 2′-F-cytidine (underlined) or by addition of a 3′-3′-linked deoxythymidine “cap” (asterisks). The length of each oligonucleotide (minus the cap) and its high affinity KD for binding to VEGF are shown.

Binder | Kd
B25 | 10 pM
B26 | 40 pM
B27 | 80 pM
B28 | 200 pM
B29 | 60 pM
B30 | 10 pM
B31 | 3000 pM
B32 | 90 pM
B33 | 100 pM
B34 | 20000 pM
B35 | 70 pM
B36 | 100 pM

target: T1, VEGF165; experiment: filter; 37 C; conditions: tags: carrier-free, Sf 21 insect cell expressed, R & D Systems; chain copies: 2 (inferred); remark: another data set of the same source
Description: as §1
Stabilization of oligonucleotides to nucleases is likely to be critical to their success as therapeutic or diagnostic agents. Unfortunately, 2′-OMe-modified nucleoside triphosphates are not generally accepted as substrates by RNA polymerases under standard reaction conditions. However, 2′-OMe purines may be introduced into a specific oligonucleotide by chemical synthesis. […] To identify those purine positions for which 2′-OMe substitution is compatible with high affinity binding to VEGF, several syntheses of ligands t2, t22 and t44 were prepared in which five or six purines at a time were partially substituted with the modified nucleotide (described in Example 3). Affinity selection of each partially substituted library was used to isolate those molecules that retained substantial affinity for VEGF.

Binder | Kd
B37 | 4000 pM
B38 | 20 pM
B39 | 60 pM
B40 | 20000 pM
B41 | 500 pM
B42 | 10 pM
B43 | 40 pM
B44 | 90 pM
